Target: T1, wild type α-synuclein (Homo sapiens, UniProt P37840)
T1 construct: made in house; host or cells: Escherichia coli (pTYB1/α-syn; strain ER2566 is named for the mutants)
Test: Inhibition of fibril formation of wild type α-synuclein by partial structure peptide, TfT fluorescence
Type: biochemical
Conditions: peptide 0.2 mg/ml in 2 mg/ml wild type α-synuclein, 37° C.
Method: A synthetic α-synuclein partial structure peptide consisting of 10 amino acid residues of NH2-[…]COOH was dissolved at 0.2 mg/ml in a 2 mg/ml solution of purified wild type α-synuclein, and incubated at 37° C. Aliquot of 10 μl was collected in predetermined intervals. To the collected sample was added a buffer solution of 10 mM Tris-HCl, pH 7.4, containing a fluorescent dye thioflavine T (TfT), which specifically binds to a fibril structure, in a final concentration of 25 μM to make a volume of 100 μl, and fluorescence spectrum was monitored immediately (Ex 440 nm; Em 450-550 nm). The fibril formation rate and the amount thereof were determined from the increase in the fluorescence intensity of TfT.

decrease of the fibril formation ability of the wild type α-synuclein (to the extent of): about 20%
Substance: NH2-Val-Gly-Gly-Ala-Thr-Thr-Thr-Gly-Val-Thr-COOH (H-VGGATTTGVT-OH) [α-synuclein partial structure peptide, synthetic α-synuclein partial structure peptide consisting of 10 amino acid residues]

From patent publication US20070213253A1, “Synuclein Mutant Having Aggregation-Inhibitory Activity” (priority 2003, published 2007)
